These results are taken from patent US20240010684A1 (Bayer, published 2024).

*1 amine or outer side, *2 acyl side, *3 side chain or, on linkers, in order; H or OH if unused. Bridges are numbered along the chain shown (N, C = ends). Where no end group is shown, it is not given here. [ ]: non-standard residue; d: D form. Oic = O=C(O)[C@@H]1C[C@@H]2CCCC[C@@H]2N1; Adipoyl = O=C(CCCCC(=O)[*:2])[*:1]; Trx = NC[C@H]1CC[C@H](C(=O)O)CC1; tBuAla = CC(C)(C)C[C@H](N)C(=O)O; Pen = CC(C)(S)[C@H](N)C(=O)O; 4Amb = NCc1ccc(C(=O)O)cc1; NMeC = CN[C@@H](CS)C(=O)O; Orn = NCCC[C@H](N)C(=O)O; Dab = NCC[C@H](N)C(=O)O; Dap = NC[C@H](N)C(=O)O; Ahx = NCCCCCC(=O)O; GABA = NCCCC(=O)O; Sar = CNCC(=O)O

Common to all, as to experiment: cell-based or functional assay
Experiment [1] deals with recombinant human MASP2 (amino acids 297-686, C-terminal His Tag) (human, UniProt O00187 297-686).
The target in experiment [2] is T1, recombinant human MASP1 (amino acids 297-699, C-terminal His Tag) (human, UniProt P48740 297-699).
T1 sequence: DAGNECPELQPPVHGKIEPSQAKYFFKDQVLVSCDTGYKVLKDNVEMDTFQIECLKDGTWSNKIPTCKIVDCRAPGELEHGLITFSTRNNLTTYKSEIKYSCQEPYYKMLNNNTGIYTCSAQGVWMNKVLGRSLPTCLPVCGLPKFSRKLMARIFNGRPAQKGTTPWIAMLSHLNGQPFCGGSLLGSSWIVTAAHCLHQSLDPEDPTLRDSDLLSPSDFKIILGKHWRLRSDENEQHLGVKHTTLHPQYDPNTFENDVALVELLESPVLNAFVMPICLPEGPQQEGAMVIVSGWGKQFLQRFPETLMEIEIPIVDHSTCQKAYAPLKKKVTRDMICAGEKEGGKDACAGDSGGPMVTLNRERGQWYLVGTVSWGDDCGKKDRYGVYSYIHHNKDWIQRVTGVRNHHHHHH

Experiment [3] addresses T2, recombinant rat MASP1 (amino acids 302-704, C-terminal His Tag) (rat, UniProt Q8CHN8 302-704).
T2 sequence: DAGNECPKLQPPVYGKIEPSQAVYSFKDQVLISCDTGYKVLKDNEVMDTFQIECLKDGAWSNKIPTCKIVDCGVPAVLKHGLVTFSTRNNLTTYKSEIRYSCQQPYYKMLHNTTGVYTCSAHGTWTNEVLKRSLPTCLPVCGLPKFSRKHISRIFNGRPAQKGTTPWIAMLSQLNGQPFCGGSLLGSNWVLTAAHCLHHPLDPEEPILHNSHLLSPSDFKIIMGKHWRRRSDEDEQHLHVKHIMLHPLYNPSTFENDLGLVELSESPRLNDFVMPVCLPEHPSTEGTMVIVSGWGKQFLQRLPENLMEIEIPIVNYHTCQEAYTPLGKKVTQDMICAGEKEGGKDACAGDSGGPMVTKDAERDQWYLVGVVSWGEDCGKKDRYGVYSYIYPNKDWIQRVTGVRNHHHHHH

Experiment [4] has as its target recombinant rat MASP2 (amino acids 296-685, C-terminal His Tag) (rat, UniProt Q9JJS8 296-685).

Sequence of recombinant rat MASP2 (amino acids 296-685, C-terminal His Tag) (Q9JJS8 other isoform, or with tags, fused parts or gaps limits assumed): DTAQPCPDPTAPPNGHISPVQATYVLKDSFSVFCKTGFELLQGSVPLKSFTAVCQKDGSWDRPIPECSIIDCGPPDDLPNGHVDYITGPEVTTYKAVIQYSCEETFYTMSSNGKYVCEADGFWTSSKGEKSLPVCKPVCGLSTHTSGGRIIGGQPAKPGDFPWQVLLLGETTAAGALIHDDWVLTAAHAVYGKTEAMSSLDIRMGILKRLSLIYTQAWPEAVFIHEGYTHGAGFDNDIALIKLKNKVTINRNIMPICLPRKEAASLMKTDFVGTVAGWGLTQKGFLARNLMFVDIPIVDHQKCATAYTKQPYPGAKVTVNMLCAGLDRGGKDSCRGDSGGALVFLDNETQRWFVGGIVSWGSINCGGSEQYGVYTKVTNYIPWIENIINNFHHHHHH
Sequence of recombinant human MASP2 (amino acids 297-686, C-terminal His Tag) (O00187 other isoform, or with tags, fused parts or gaps limits assumed): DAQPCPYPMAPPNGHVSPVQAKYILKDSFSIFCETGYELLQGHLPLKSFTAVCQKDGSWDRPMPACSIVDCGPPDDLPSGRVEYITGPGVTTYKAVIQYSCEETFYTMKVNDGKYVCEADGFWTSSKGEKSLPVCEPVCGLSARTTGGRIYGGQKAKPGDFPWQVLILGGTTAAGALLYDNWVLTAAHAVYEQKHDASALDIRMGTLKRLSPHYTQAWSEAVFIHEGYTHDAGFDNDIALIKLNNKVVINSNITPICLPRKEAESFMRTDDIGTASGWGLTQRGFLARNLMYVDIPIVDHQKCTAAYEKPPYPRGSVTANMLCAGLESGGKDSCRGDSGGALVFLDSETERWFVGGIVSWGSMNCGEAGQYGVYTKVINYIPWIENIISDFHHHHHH

Consider cyclo([Dap][Dap]ICSRS[tBuAla]PPI[Pen]I) (disulfide 4-12; also: TFA salt) [Example 57: (Dap)**-(Dap)-IC+SRS-((tBu)A)-PPI-(Pen)+-I**], for which the “human MASP2 IC50” value in experiment [1] stood at 340 nM. Moreover, the “human MASP1 IC50” value in experiment [2] came to 46 nM.
For [Ahx]GICSRSLP[Oic]I[Pen]IPD-NH2 (disulfide 4-12; lactam N-15; also: TFA salt) [Example 49: (Ahx)**-GIC+SRSLP-(Oic)-I-(Pen)+-IPD++-NH2], in that order: 140 nM and 19 nM.
In the case of cyclo(AGGICSRSLP[Oic]I[Pen]IP[dD]) (disulfide 5-13; also: TFA salt) [Example 98: A**GGIC+SRSLP-(Oic)-I-(Pen)+-IPd**], the “rat MASP1 IC50” value in experiment [3] is 170 nM. Further, in experiment [1], the “human MASP2 IC50” value turned out to be 160 nM. Moreover, the “human MASP1 IC50” value in experiment [2] worked out at 19 nM.
As for [Ahx]GICSRS[tBuAla]PPI[Pen]IPD-NH2 (disulfide 4-12; lactam N-15; also: TFA salt) [Example 48: (Ahx)**-GIC+SRS-((tBu)A)-PPI-(Pen)+-IPD++-NH2], the “human MASP2 IC50” value in experiment [1] was found to be 70 nM. Moreover, the “human MASP1 IC50” value in experiment [2] turned out to be 10 nM.
The like results for cyclo([Dap]ICSRS[tBuAla]PPI[Pen]IP) (disulfide 3-11; also: TFA salt) [Example 55: (Dap)**-IC+SRS-((tBu)A)-PPI-(Pen)+-IP**] were, in that order, 900 nM and 46 nM.
The like results for cyclo([Ahx]GICSRSLPPICIPD) (disulfide 4-12; also: TFA salt) [Example 13: (Ahx)**-GIC+SRSLPPIC+IPD**] were, in that order, 130 nM and 140 nM.
Consider cyclo([Ahx][Sar]ICSRS[tBuAla]PPI[Pen]I) (disulfide 4-12; also: TFA salt) [Example 64: (Ahx)**-((N-Me)G)-IC+SRS-((tBu)A)-PPI-(Pen)+-I**], for which, in experiment [4], the “rat MASP2 IC50” value worked out at 13 nM. Besides, the “rat MASP1 IC50” value in experiment [3] turned out to be 157 nM. Besides, the “human MASP2 IC50” value in experiment [1] was found to be 12 nM. Further, the “human MASP1 IC50” value in experiment [2] was 9.4 nM.
For EGICSRSLP[Oic]I[Pen]IPD[Dap]-NH2 (lactam 1-16; disulfide 4-12; also: TFA salt) [Example 93: E++GIC+SRSLP-(Oic)-I-(Pen)+-IPD-(Dap)++-NH2], in that order: 68 nM, 410 nM, 45 nM and 35 nM.
Consider CAICSRS[tBuAla]PPI[Pen]IPDC-NH2 (disulfide 1-16, 4-12; also: TFA salt) [Example 50: C++AIC+SRS-((tBu)A)-PPI-(Pen)+-IPDC++-NH2], for which the “human MASP2 IC50” value in experiment [1] came to 210 nM. Moreover, the “human MASP1 IC50” value in experiment [2] worked out at 13 nM.
For cyclo([GABA]ICSRS[tBuAla]PPI[Pen]IPD) (disulfide 3-11; also: TFA salt) [Example 35: (Gamma-Abu)**-IC+SRS-((tBu)A)-PPI-(Pen)+-IPD**], the “rat MASP2 IC50” value in experiment [4] came to 24 nM. For the same molecule, in experiment [3], the “rat MASP1 IC50” value was 63 nM. Besides, in experiment [2], the “human MASP1 IC50” value turned out to be 4.1 nM.
Turning to cyclo([Ahx]AICSRS[tBuAla]PPI[Pen]I) (disulfide 4-12; also: TFA salt) [Example 72: (Ahx)**-AIC+SRS-((tBu)A)-PPI-(Pen)+-I**], in experiment [4], the “rat MASP2 IC50” value amounted to 14 nM. Further, the “rat MASP1 IC50” value in experiment [3] was determined as 85 nM. In addition, in experiment [1], the “human MASP2 IC50” value came out at 48 nM. Further, the “human MASP1 IC50” value in experiment [2] is 6.3 nM.
For cyclo([Dap][Dap]ICSRSLP[Oic]I[Pen]IP) (disulfide 4-12; also: TFA salt) [Example 89: (Dap)**-(Dap)-IC+SRSLP-(Oic)-I-(Pen)+-IP**], in that order: 64 nM, 290 nM, 91 nM and 5.7 nM.

B1: Example 60: (Adipic acid)**-IC+SRS-((tBu)A)-PPI-(Pen)+-IPD-(Dap)++-NH2 (peptide)
peptide: Adipoyl-ICSRS[tBuAla]PPI[Pen]IPD[Dap]-NH2
modifications: lactam (positions not given here); disulfide 2-10; not fully specified (bridges); also: TFA salt
Take B1: in experiment [4], the “rat MASP2 IC50” value came out at 13 nM. For the same molecule, the “rat MASP1 IC50” value in experiment [3] was found to be 330 nM. Moreover, the “human MASP2 IC50” value in experiment [1] turned out to be 5.4 nM. Moreover, in experiment [2], the “human MASP1 IC50” value came out at 58 nM.
Regarding [Orn]AICSRS[tBuAla]PPI[NMeC]IPD-NH2 (lactam 1-15; disulfide 4-12; also: TFA salt) [Example 44: (Orn)++-AIC+SRS-((tBu)A)-PPI-((N-Me)C)+-IPD++-NH2], the “human MASP2 IC50” value in experiment [1] was found to be 230 nM. In addition, the “human MASP1 IC50” value in experiment [2] is 4.7 nM.
For the molecule cyclo([Ahx][4Amb]ICSRS[tBuAla]PPI[Pen]IP) (disulfide 4-12; also: TFA salt) [Example 68: (Ahx)**-(4-(Aminomethyl)benzoic acid)-IC+SRS-((tBu)A)-PPI-(Pen)+-IP**], the “rat MASP2 IC50” value in experiment [4] stood at 2.97 nM. Also, the “rat MASP1 IC50” value in experiment [3] turned out to be 30.8 nM. Also, in experiment [1], the “human MASP2 IC50” value came out at 2.57 nM. For the same molecule, the “human MASP1 IC50” value in experiment [2] was found to be 6.1 nM.
The like results for [Ahx]ICSRSLP[Oic]I[Pen]IPE-NH2 (disulfide 3-11; lactam N-14; also: TFA salt) [Example 75: (Ahx)**-IC+SRSLP-(Oic)-I-(Pen)+-IPE++-NH2] were, in that order, 1.4 nM, 27 nM, 14 nM and 7.2 nM.
Turning to cyclo([Ahx][Trx]ICSRS[tBuAla]PPI[Pen]IP) (disulfide 4-12; also: TFA salt) [Example 59: (Ahx)**-(TXA)-IC+SRS-((tBu)A)-PPI-(Pen)+-IP**], the “rat MASP1 IC50” value in experiment [3] is 48.6 nM. For the same molecule, the “human MASP2 IC50” value in experiment [1] came out at 5.7 nM. Also, in experiment [2], the “human MASP1 IC50” value was determined as 11 nM.
On to cyclo([Ahx]AICSRSLPPICIPD) (disulfide 4-12; also: TFA salt) [Example 45: (Ahx)**-AIC+SRSLPPIC+IPD**], for which the “human MASP2 IC50” value in experiment [1] amounted to 74 nM. Moreover, in experiment [2], the “human MASP1 IC50” value was determined as 92 nM.
Regarding cyclo(AGGICSRSLP[Oic]I[Pen]IPD) (disulfide 5-13; also: TFA salt) [Example 92: A**GGIC+SRSLP-(Oic)-I-(Pen)+-IPD**], the “rat MASP2 IC50” value in experiment [4] came to 41 nM. The “rat MASP1 IC50” value in experiment [3] worked out at 170 nM. In experiment [1], the “human MASP2 IC50” value stood at 77 nM. For the same molecule, the “human MASP1 IC50” value in experiment [2] amounted to 8.4 nM.
As for cyclo([Dab]ICSRS[tBuAla]PPI[Pen]IP) (disulfide 3-11; also: TFA salt) [Example 56: (Dab)**-IC+SRS-((tBu)A)-PPI-(Pen)+-IP**], in experiment [1], the “human MASP2 IC50” value stood at 1100 nM. Also, in experiment [2], the “human MASP1 IC50” value amounted to 86 nM.
For cyclo([Ahx]ICSRS[tBuAla]PPI[Pen]IP) (disulfide 3-11; also: TFA salt) [Example 51: (Ahx)**-IC+SRS-((tBu)A)-PPI-(Pen)+-IP**], in that order: 17 nM and 6.3 nM.
Take cyclo([Ahx]AICSRS[tBuAla]PPICIPD) (disulfide 4-12; also: TFA salt) [Example 46: (Ahx)**-AIC+SRS-((tBu)A)-PPIC+IPD**]: the “human MASP2 IC50” value in experiment [1] came out at 89 nM. Moreover, the “human MASP1 IC50” value in experiment [2] is 56 nM.
For [Ahx]AICSRSLP[Oic]I[Pen]IPD-NH2 (disulfide 4-12; lactam N-15; also: TFA salt) [Example 43: (Ahx)**AIC+SRSLP-(Oic)-I-(Pen)+-IPD++-NH2], in that order: 120 nM and 6.7 nM.
